Measured values published in article PMC12485088.

T1: full-length human CXCR4 with a C-terminal Flag-tag (human), P61073
T1 chain: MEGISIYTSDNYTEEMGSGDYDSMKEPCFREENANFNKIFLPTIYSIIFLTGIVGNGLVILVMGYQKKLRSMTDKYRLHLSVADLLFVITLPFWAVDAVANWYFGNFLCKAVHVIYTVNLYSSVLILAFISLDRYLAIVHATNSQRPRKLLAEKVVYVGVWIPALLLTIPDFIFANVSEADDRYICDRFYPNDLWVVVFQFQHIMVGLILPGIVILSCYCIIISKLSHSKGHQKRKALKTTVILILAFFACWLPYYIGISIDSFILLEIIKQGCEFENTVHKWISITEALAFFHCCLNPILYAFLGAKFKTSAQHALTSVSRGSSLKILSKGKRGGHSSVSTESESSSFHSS


Tests used:
[1] = molecular target: full-length human CXCR4 with a C-terminal Flag-tag (human) (UniProt P61073); test: cryo-EM structure
[2] = molecular target: T1, full-length human CXCR4 with a …; test: cryo-EM structure; settings: remark: other sources report otherwise
[3] = molecular target: T1, full-length human CXCR4 with a …; test: native gel or EMSA; settings: remark: other sources report otherwise

Row | Molecule | stoichiometry N (gp120 per CXCR4 tetramer) [1] | stoichiometry N (protomers in the oligomer) [2] | stoichiometry N (protomers in the oligomer (main peak)) [3]
1 | gp120^HIV-2-CD4 complex (from UniProt P01730 26-388) | 2 | – | –
2 | full-length human CXCR4 with a C-terminal Flag-tag, P61073 1-352 (receptor) MEGISIYTSDNYTEEMGSGDYDSMKEPCFREENANFNKIFLPTIYSIIFLTGIVGNGLVILVMGYQKKLRSMTDKYRLHLSVADLLFVITLPFWAVDAVANWYFGNFLCKAVHVIYTVNLYSSVLILAFISLDRYLAIVHATNSQRPRKLLAEKVVYVGVWIPALLLTIPDFIFANVSEADDRYICDRFYPNDLWVVVFQFQHIMVGLILPGIVILSCYCIIISKLSHSKGHQKRKALKTTVILILAFFACWLPYYIGISIDSFILLEIIKQGCEFENTVHKWISITEALAFFHCCLNPILYAFLGAKFKTSAQHALTSVSRGSSLKILSKGKRGGHSSVSTESESSSFHSS | – | 4 | 4
